Measured values as given in patent US8530213B2, “Compositions and methods for using NADH oxidases” (Georgia Tech Research Corporation, priority 2009, dated 2013).
Positions count from the first letter of the chain named. Names may count otherwise.

B1: L179R: NADH oxidase derived from Lactobacillus plantarum, L179R mutant (protein, listed as Lactobacillus plantarum)
chain: MKVIVIGCTHAGTAAVNQILASNPDTEVTIYERNDNVSFLSCGIALYLGGQVADPQGLFYSSPEQLAKLGATVHMQHDVTDVNTDKHEITVTDLKTGESKTDHYDKLVVTTGSWPVIPPIDGIDSPNVYLCKNWTHAQNLWEAAKPAKRVIVIGGGYIGTELVEAYQKQGKEVTLIDGRPRILNKYLDKEFTDRVEQDFVDHGIKMALNQMVQGFSDDGKEVTVKTDKGSYTADMAILCVGFRPNTGLLKGKVDMNANGSIKTNDYMQTSDPDIYGAGDSVAVHYNPTKKDAYIPLATNAVRQGTLVGLNIFKPTRKYMGTQSTSGLMLFGQTIVSSGMTLEHAQAENVPAAAVTFEDNYRPEFMPTTKPVLMQLVYNPETREILGAQFMSEHDVSQSANVISVMIQNHNTIDDLGFVDMFFQPIYDRPFNYLNLLGQAAIAHAAEAVTE
B2: G178K/L179R: NADH oxidase derived from Lactobacillus plantarum, G178K/L179R mutant (protein, listed as Lactobacillus plantarum)
chain: B1 chain with G178K
B3: G178R: NADH oxidase derived from Lactobacillus plantarum, G178R mutant (protein, listed as Lactobacillus plantarum)
chain: B1 chain with G178K, R179L
B4: G178K: NADH oxidase derived from Lactobacillus plantarum, G178K mutant (protein, listed as Lactobacillus plantarum)
chain: B1 chain with G178K, R179L
B5: G178K/L179H: NADH oxidase derived from Lactobacillus plantarum, G178K/L179H mutant (protein, listed as Lactobacillus plantarum)
chain: B1 chain with G178K, R179H
B6: G178K/L179K: NADH oxidase derived from Lactobacillus plantarum, G178K/L179K mutant (protein, listed as Lactobacillus plantarum)
chain: B1 chain with G178K, R179K
B7: L179K: NADH oxidase derived from Lactobacillus plantarum, L179K mutant (protein, listed as Lactobacillus plantarum)
chain: B1 chain with R179K
B8: G178R/L179K: NADH oxidase derived from Lactobacillus plantarum, G178R/L179K mutant (protein, listed as Lactobacillus plantarum)
chain: B1 chain with G178R, R179K
B9: L179H: NADH oxidase derived from Lactobacillus plantarum, L179H mutant (protein, listed as Lactobacillus plantarum)
chain: B1 chain with R179H
B10: G178R/L179H: NADH oxidase derived from Lactobacillus plantarum, G178R/L179H mutant (protein, listed as Lactobacillus plantarum)
chain: B1 chain with G178R, R179H
B11: G178R/L179R: NADH oxidase derived from Lactobacillus plantarum, G178R/L179R mutant (protein, listed as Lactobacillus plantarum)
chain: B1 chain with G178R
B12: L. lactis NOX2: NADH oxidase from Lactococcus lactis, comparison enzyme (protein, UniProt A2RIB7 1-446, looked up)
NADH oxidase: MKIVVIGTNHAGIATANTLLEQYPGHEIVMIDRNSNMSYLGCGTAIWVGRQIEKPDELFYAKAEDFEAKGVKILTETEVSEIDFANKKVYAKTKSDDEIIEAYDKLVLATGSRPIIPNLPGKDLKGIHFLKLFQEGQAIDAEFAKEKVKRIAVIGAGYIGTEIAEAAKRRGKEVLLFDAENTSLASYYDEEFAKGMDENLAQHGIELHFGELAKEFKANEEGYVSQIVTNKATYDVDLVINCIGFTANSALASDKLATFKNGAIKVDKHQQSSDPDVYAVGDVATIYSNALQDFTYIALASNAVRSGIVAGHNIGGKELESVGVQGSNGISIFGYNMTSTGLSVKAAKKLGLEVSFSDFEDKQKAWFLHENNDSVKIRIVYETKSRRIIGAQLASKSEIIAGNINMFSLAIQEKKTIDELALLDLFFLPHFNSPYNYMTVAALNAK

Tests used:
NOX5 [1] = target: T1, NOX5 (Lactiplantibacillus plantarum, UniProt F9UUC2); conditions: H2O2 up to 200 μM, 30 minutes incubation
Method: (§1) Inhibition effects of NAD^+ and H2O2 were measured by incubating the enzyme with possible inhibitors for 30 minutes before the assay. For NAD^+, 0.2, 0.3, 0.4 and 0.6 mM were chosen and for H2O2, 25, 50, 100 and 200 μM were investigated.
The effect of H2O2 was studied with a concentration range up to 200 μM, which would be the total amount produced from a standard assay if the enzyme was a hydrogen peroxide producing NADPH oxidase.

NOX5 [2] = target: T1, NOX5; test: NAD+ product inhibition of NOX5; format: biochemical, Lactobacillus plantarum
Method: as §1
Possible product inhibitory effects were investigated by incubating the enzyme with different concentrations of NAD^+. […] (FIG. 6).

[3] = NOX5 mutants assayed at the cell lysate level, NADPH activity; format: biochemical
Method: (§2) Standard assays were performed at 25° C. in 100 mM TEA buffer (pH 7.5) with 5 mM DTT in cuvettes with either a 1 cm or 1 mm path length, depending on the concentration of substrate. Initial activity was measured by following the absorbance change using a Beckman Coulter DU 800 UV/Vis spectrophotometer at 340 nm. Activity of the enzyme was calculated using an extinction coefficient of NAD(P)H, ε, as 6.22 mM^−1 cm^−1. Unless otherwise noted, a substrate concentration of 0.2 mM NADPH was used for assays. 1 unit (U) of activity is defined as […].
(§3) Single mutations were done on residues G178 and L179 into K, R and K, R, H respectively, and double mutations were also investigated with different combinations of the single mutations. The mutation of G178H was excluded due to the fact that the enzyme would then have two histidines next to each other, creating steric hindrance in the binding pocket. The resulting mutants were expressed on small scale and assayed at the cell lysate level.

[4] = Kinetic parameters of purified NADH oxidases, substrate NADH; format: biochemical
Method: as §2
[…] This was conducted with an excess of oxygen present in the system. The reaction was initiated by mixing two separate 2× solutions of each the substrate and enzyme. The specific activity was measured, and the kinetic parameters were calculated from that data.
The data was fitted with four different models: non-linear Michaelis-Menten, Lineweaver-Burk, Eadie-Hofstee and Hanes. Through non-linear fitting, kcat and KM of the wild type were measured to be 211.6 s^−1 and 50.2 μM, respectively with an R^2 of 0.998. (FIG. 5).

[5] = Total turnover number (TTN), NADH; format: biochemical; set-up: key: TTN = change in NAD(P)H concentration / amount of enzyme; conditions: for TTN with DTT, NADH: 5 mM DTT, 25° C.; for TTN, NADH: no reducing agents
Method: (§4) Standard kinetic assays were performed with small amounts of enzyme. Assays were carried out for two to three hours until there was no more enzymatic conversion of the substrate.
Total turnover number (TTN) is a measurement of catalyst productivity. For biocatalysts, TTN is defined as the total amount of product produced over the lifetime of an enzyme. […] […] (data not shown).
(§5) This experiment was repeated to see if the presence of reducing agents had any effect on the total turnover number. The stock solution of enzyme was dialyzed against 250 mL of 10 mM Tris-HCl (pH 7.5) for two hours. The solution was then exchanged and dialyzed for an additional 2 hours. The TTN was then measured with the dialyzed enzyme with and without reducing agents. DTT and β-mercaptoethanol (β-ME) were used at a concentration of 5 mM. The TTN for the sample with no reducing agents, DTT and β-ME were 128,000, 168,000 and 107,000, respectively.

[6] = NOX5 mutants assayed at the cell lysate level, NADH activity; format: biochemical
Method: as §2, §3

[7] = Kinetic parameters of purified NADH oxidases, substrate NADPH; format: biochemical; conditions: purified enzyme, excess of oxygen
Method: as §2
Depending on the enzyme, a substrate concentration range from 1.5 μM up to 984 μM was investigated to determine the kcat and KM of NADPH. This was conducted with an excess of oxygen present in the system. The reaction was initiated by mixing two separate 2× solutions of each the substrate and enzyme. The specific activity was measured, and the kinetic parameters were calculated from that data.

[8] = Total turnover number (TTN), NADPH; format: biochemical
Method: as §4
Total turnover number (TTN) is a measurement of catalyst productivity. For biocatalysts, TTN is defined as the total amount of product produced over the lifetime of an enzyme. Calculations of TTN were performed by dividing the change of NADPH concentration by the amount of enzyme that was used for each assay. […] (data not shown).
as §5

[9] = purified enzyme, excess of oxygen

T1 sequence (F9UUC2 entry or part of it): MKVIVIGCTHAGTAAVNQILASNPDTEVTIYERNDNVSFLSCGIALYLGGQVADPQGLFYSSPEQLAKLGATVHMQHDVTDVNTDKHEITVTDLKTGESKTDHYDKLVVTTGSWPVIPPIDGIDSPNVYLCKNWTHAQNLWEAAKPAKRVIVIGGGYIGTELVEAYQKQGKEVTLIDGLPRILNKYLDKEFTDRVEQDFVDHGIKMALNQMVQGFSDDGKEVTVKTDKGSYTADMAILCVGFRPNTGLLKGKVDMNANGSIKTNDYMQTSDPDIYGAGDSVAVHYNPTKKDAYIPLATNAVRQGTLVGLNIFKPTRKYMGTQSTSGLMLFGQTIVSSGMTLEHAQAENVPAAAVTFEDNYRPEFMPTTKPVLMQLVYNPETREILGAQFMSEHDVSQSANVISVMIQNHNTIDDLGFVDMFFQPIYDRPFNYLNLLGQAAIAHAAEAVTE

Molecule	NADPH activity [3] [U/mg]	NADH activity [6] [U/mg]	other results
OO [H2O2, hydrogen peroxide]	–	–	change in the initial specific activity of the enzyme (NOX5 [1]): no change
NC(=O)c1ccc[n+]([C@@H]2O[C@H](COP(=O)([O-])OP(=O)(O)OC[C@H]3O[C@@H](n4cnc5c(N)ncnc54)[C@H](O)[C@@H]3O)[C@@H](O)[C@H]2O)c1 [NAD^+]	–	–	Ki (NOX5 [2]; 0.2, 0.3, 0.4 and 0.6 mM NAD^+, 30 minutes incubation): 289 µM; inhibition pattern (NOX5 [2]; Hanes-Woolf plot): non-competitive
B1	1.76	7.32	improvement of kcat/KM (NADH) over the wild-type [4]: more than 4 fold; Km [4, 9]: 6.56 µM; kcat, NADH [4, 9]: 122.0 s⁻¹; TTN with DTT, NADH [5]: 149,000; TTN, NADH [5]: 181,000; Km [7]: 490 µM; kcat, NADPH [7]: 146.4 s⁻¹
B2	5.68	2.00	–
B3	0.23	1.51	–
B4	0.46	3.92	–
B5	3.85	1.24	–
B6	3.11	0.84	–
B7	1.03	5.14	–
B8	3.56	0.94	–
B9	0.64	1.37	–
B10	0.52	0.64	–
B11	6.00	2.64	TTN, NADPH ([8]; no reducing agents): 105,000; TTN with DTT, NADPH ([8]; with DTT): 118,000; kcat, NADH [4, 9]: 34.0 s⁻¹; TTN with DTT, NADH [5]: 128,000; TTN, NADH [5]: 108,000; Km [7]: 9.76 µM; kcat, NADPH [7]: 114.1 s⁻¹
B12	–	–	TTN with DTT, NADH [5]: 78,480; TTN, NADH [5]: 38,740
